The source of these data is patent publication US11467166B2, “Compositions and methods for detecting molecule-molecule interactions” (ShanghaiTech University, priority 2017, dated 2022).

A value given as a limit tells only on which side of the number the result lay.

One test has as its target CD86/CD80. The note with it: CD28 interaction with CD86/CD80; reported; cited from earlier work.
The next test concerns the target T1, His-MATH (Homo sapiens, UniProt O43791).
T1 construct: made in house; host or cells: E. coli BL21(DE3)
In words: Peptide competition assay in the in vitro Pup modification of MATH by PUP-IT^pep1. The class given is biochemical. The note with it: free peptide added at 1-512 μM; 0.2 μM His-MATH, 8 μM Pup(E); anti-His immunoblot. How it is done: Pup modification were assayed at 37° C. for 30 min with purified recombinant proteins in a 20 μl reaction volume with 20 mM Tris 8.0, 100 mM NaCl, 10 mM ATP, and 15 mM MgCl2. The reaction also contains purified 1 μM PUP-IT, 10 μM Pup(E) or 10 mM bio-DE28. All the reactions were stopped by direct addition of 6×SDS loading buffer and analyzed on 4-20% SDS-PAGE gels (Genescript, cat. #M42015C).
Peptide competition assay (as in FIG. 2d) was performed in the presence of different peptides. Free pep1 (sequence […], SEQ ID NO: 12) and control peptide (sequence […], SEQ ID NO: 15) were synthesized and purified to >98% pure, confirmed by mass spectrometry. The peptides were dissolved in water and pH adjusted with Tris buffer to 7, stored as 2 mM stock in −80° C. The reactions were set up with 1 μM pup^SBC1, 0.2 μM His-MATH, and 8 μM Pup(E). Different amount of free pep1 or control peptide was added to each reaction to make the final peptide concentration at 1, 2, 4, 8, 16, 32, 64, 128, 256, and 512 μM. All the reactions were stopped by direct addition of 6×SDS loading buffer and analyzed on 4-20% SDS-PAGE gels, followed by immune-blotting with anti-His antibody to identify both unmodified and modified MATH. The density of modified MATH was quantified with ImageJ and then plotted with GraphPad Prism 6.

In test [1] the target is MATH domain from human SPOP (Homo sapiens, UniProt O43791). The note with it: peptide binding to MATH domain from human SPOP; known values; read-out: dissociation constant (Kd); cited from earlier work.
Sequence of MATH domain from human SPOP (O43791 31-161 limits assumed): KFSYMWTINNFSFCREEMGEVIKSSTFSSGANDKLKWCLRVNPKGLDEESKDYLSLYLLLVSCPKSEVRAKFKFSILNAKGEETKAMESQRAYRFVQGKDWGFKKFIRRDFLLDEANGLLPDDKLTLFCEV

T1 sequence (O43791 31-161 limits assumed): as above

In general, Kd refers to the concentration at which binding is half-saturated. For “CD28: co-stimulating receptor normally expressed on the surface of T cells”, on CD86/CD80, the Kd is 4 µM.

Consider “SPOP substrate-derived MATH-binding peptide LACDEVTSTTSSSTA (SEQ ID NO: 12) [pep1]”, for which the “inhibition of MATH modification” value with His-MATH was “dose-dependent inhibition of MATH modification”. Besides, the Kd in test [1] is 3.7 µM. As for “SPOP substrate-derived MATH-binding peptide SELDSPSSTSSSSGI (SEQ ID NO: 14), the weakest binder [pep3]”, the Kd in test [1] was more than 250 µM. Turning to “SPOP substrate-derived MATH-binding peptide TLFPDVSSSTHPYHG (SEQ ID NO: 13) [pep2]”, the Kd in test [1] is 76 µM. On to “pep1(mut): mutated pep1 peptide LACDEDTAAASSSTA (SEQ ID NO: 15), known to have defect on MATH binding”, for which the “inhibition of MATH modification” value with His-MATH is on record as “could not be fully inhibited”.
